Assay: soluble on expression in E. coli; label from the status in PepcDB or PDB records

Sequence | soluble on expression in E. coli
MRRRWYNNGGFQTLRMLEESSSEVTSSSALGLPPAMVMSPESLASPEYGGLELWGYDDGITYSMAQSLGTCTMEQQQPQPQQQPQQTQPLPSMPLPMPPTTPKSENESMSSGREELSPASSVNGCSTDGEARRQKKGPAPRQQEELCLVCGDRASGYHYNALTCEGCKGFFRRSVTKNAVYICKFGHACEMDMYMRRKCQECRLKKCLAVGMRPECVVPENQCAMKRKEKKAQREKDKLPVSTTTVDDHMPPIMQCDPPPPEAARIHEVVPRFLNEKLMEQNRLKNVPPLTANQKSLIARLVWYQEGYEQPSEEDLKRVTQTWQSDEDDEDSDMPFRQITEMTILTVQLIVEFAKGLPGFAKISQSDQITLLKACSSEVMMLRVARRYDAATDSVLFANNQAYTRDNYRKAGMAYVIEDLLHFCRCMYSMMMDNVHYALLTAIVIFSDRPGLEQPLLVEEIQRYYLNTLRVYILNQNSASPRCAVIFGKILGILTEIRTLGMQNSNMCISLKLKNRKLPPFLEEIWDVADVATTATPVAAEAPAPLAPAPPARPPATV | soluble
MRRSLVVAVMAIMPMVGLANQNSRPDIQVNVPPEVFSTRGQSSQPCIQCCVYQDQNYSEGAVIKVEGVVLQCQRDEKTISTNPLVWRRVKPLEHHHHHH | not soluble
MRRYLEHLMIKLSEKGVFLASNNEIIAEEHFTGEIKKEEAKKGTIAWSILSSHNTSGNMDKLKIKFDSLASHDITFVGIVQTAKASGMERFPLPYVLTNCHNSLCAVGGTINGDDHVFGLSAAQRYGGIFVPPHIAVIHQYMREMMAGGGKMILGSDSHTRYGALGTMAVGEGGGELVKQLLNDTWDIDYPGVVAVHLTGKPAPYVGPQDVALAIIGAVFKNGYVKNKVMEFVGPGVSALSTDFRNSVDVMTTETTCLSSVWQTDEEVHNWLALHGRGQDYCQLNPQPMAYYDGCISVDLSAIKPMIALPFHPSNVYEIDTLNQNLTDILREIEIESERVAHGKAKLSLLDKVENGRLKVQQGIIAGCSGGNYENVIAAANALRGQSCGNDTFSLAVYPSSQPVFMDLAKKGVVADLIGAGAIIRTAFCGPCFGAGDTPINNGLSIRHTTRNFPNREGSKPANGQMSAVALMDARSIAATAANGGYLTSASELDCWDNVPEYAFDVTPYKNRVYQGFVKGATQQPLIYGPNIKDWPELGALTDNIVLKVCSKILDEVTTTDELIPSGETSSYRSNPIGLAEFTLSRRDPGYVSRSKATAELENQRLAGNVSELTEVFARIKQIAGQEHIDPLQTEIGSMVYAVKPGDGSAREQAASCQRVIGGLANIAEEYATKRYRSNVINWGMLPLQMAEVPTFEVGDYIYIPGIKAALDNPGTTFKGYVIHEDAPVTEITLYMESLTAEEREIIKAGSLINFNKNRQM | not soluble
MRSDGRKEDQLRPVSIQRDFLEYPEGSCLISFGKTKVICTASVIENVPNWLKGKGQGWITAEYSMLPRATQQRTIRESVQGRIGGRTHEIQRMIGRAMRTAVELTKIGERTIWVDCDVIQADGGARTAAITGAFVAVADAIIKLHKEGIIEETPIKDFVAAVSVGIVNDRILLDLNFEEDSAAQVDMNVVGTGSGRLSEVHTMGEEYSFTKDELIKMLDLAQKGINELIELQKKLYVIQDGKWERSELKEVSSTT | soluble
MRSERSERSDDTDGDTTALALKILVAGGFGVGKTTLVGAVSEIRPLRTEELLSEAGRLVDDTDGIDRKVTTTVAMDFGRITIRSGLSLYLFGTPGQDRFWFLWDELAQGALGAVVLADTRRLADCFPAVDYFEHRHIPFVVAVNCFTGARRHDEYSVLRALDLDPGTPVVLCDARDRDSGKEVLIRLVEYAGRMHTARLLDSVRLEHHHHHH | not soluble
MRSYRAQGPLPGFYHYYPGVPAVVGVRVEERVNFCPAVWNTGLSADPPLFGVSISPKRFTHGLLLKARRFSASFHPFGQKDLVHWLGSHSGREVDKGQAPHFLGHTGVPILEGAYAAYELELLEVHTFGDHDLFVGRVVAVWEEEGLLDEKGRPKPGLALLYYGKGLYGRPAEETFAP | soluble

Source: the DeepSol protein solubility set
